Test results from patent US20230183319A1 (published 2023).

T1: activin B (UniProt P09529 293-407)
T1 chain: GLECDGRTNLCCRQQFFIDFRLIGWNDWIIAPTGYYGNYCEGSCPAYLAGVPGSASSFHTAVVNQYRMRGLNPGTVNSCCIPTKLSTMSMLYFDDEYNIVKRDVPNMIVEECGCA

T2: activin A (UniProt P08476 311-426)
T2 chain: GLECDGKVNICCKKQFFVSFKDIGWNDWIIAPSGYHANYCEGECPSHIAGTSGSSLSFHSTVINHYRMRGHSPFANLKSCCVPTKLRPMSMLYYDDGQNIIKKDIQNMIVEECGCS

T3: BMP6 (UniProt P22004 382-513)
T3 chain: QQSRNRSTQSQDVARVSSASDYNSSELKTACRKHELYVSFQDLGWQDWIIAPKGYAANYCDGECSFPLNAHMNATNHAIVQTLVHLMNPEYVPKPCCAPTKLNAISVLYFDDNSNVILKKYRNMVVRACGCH

B1: BMP10 (ligand)
chain: NAKGNYCKRTPLYIDFKEIGWDSWIIAPPGYEAYECRGVCNYPLAEHLTPTKHAIIQALVHLKNSQKASKACCVPTKLEPISILYLDKGVVTYKFKYEGMAVSECGCR
B2: BMP9 (ligand)
chain: SAGAGSHCQKTSLRVNFEDIGWDSWIIAPKEYEAYECKGGCFFPLADDVTPTKHAIVQTLVHLKFPTKVGKACCVPTKLSPISVLYKDDMGVPTLKYHYEGMSVAECGCR
B3: GDF11 (ligand)
chain: NLGLDCDEHSSESRCCRYPLTVDFEAFGWDWIIAPKRYKANYCSGQCEYMFMQKYPHTHLVQQANPRGSAGPCCTPTKMSPINMLYFNDKQQIIYGKIPGMVVDRCGCS

Tests used:
[1] = biological target: T1, activin B; test: SPR; 37C
[2] = biological target: B3; test: SPR; 37C
[3] = biological target: T2, activin A; test: SPR; 37C
[4] = biological target: GDF8 (UniProt O14793 267-375); test: SPR; 37C
[5] = biological target: B1; test: SPR; 37 C
[6] = biological target: B2; test: SPR; 37 C
[7] = biological target: T3, BMP6; test: SPR; 37 C
[8] = biological target: L79K / F82K; test: SPR; 37C
[9] = biological target: K55A / F82I; test: SPR; 37C
[10] = biological target: K74A; test: SPR; 37C
[11] = biological target: L38Q; test: SPR; 25C
[12] = biological target: Q98L; test: SPR; 25C
[13] = biological target: Q98I; test: SPR; 25C
[14] = biological target: N35Q; test: SPR; 25C
[15] = biological target: Q98K; test: SPR; 25C
[16] = biological target: Q98R; test: SPR; 25C
[17] = biological target: N35F; test: SPR; 25C
[18] = biological target: L38R; test: SPR; 25C
[19] = biological target: Q98V; test: SPR; 25C
[20] = biological target: Q98A; test: SPR; 25C
[21] = biological target: L38D; test: SPR; 25C

Chain of GDF8 (O14793 267-375): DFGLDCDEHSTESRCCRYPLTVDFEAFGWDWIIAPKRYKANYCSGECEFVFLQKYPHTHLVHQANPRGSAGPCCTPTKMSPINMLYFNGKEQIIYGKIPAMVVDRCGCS

Kd [8] [nM]	Kd [9] [nM]	Kd [10] [nM]	Kd [11] [nM]	Kd [12] [nM]	Kd [13] [nM]	Kd [14] [nM]	Kd [15] [nM]	Kd [16] [nM]	Kd [17] [nM]	Kd [18] [nM]	Kd [19] [nM]	Kd [20] [nM]	Kd [21] [nM]	Binder	further results
														ActRIIB-G1Fc (SEQ ID NO: 519) (Fc fusion) GRGEAETRECIYYNANWELERTNQSGLERCEGEQDKRLHCYASWRNSSGTIELVKKGCWLDDFNCYDRQECVATEENPQVYFCCCEGNFCNERFTHLPEAGGPEVTYEPPPTAPTGGGTHTCPPCPAPELLGGPSVFLFPPKPKDTLMISRTPEVTCVVVDVSHEDPEVKFNWYVDGVEVHNAKTKPREEQYNSTYRVVSVLTVLHQDWLNGKEYKCKVSNKALPVPIEKTISKAKGQPREPQVYTLPPSREEMTKNQVSLTCLVKGFYPSDIAVEWESNGQPENNYKTTPPVLDSDGSFFLYSKLTVDKSRWQQGNVFSCSVMHEALHNHYTQKSLSLSPGK	Kd [1]: 0.0225 nM; Kd [2]: 0.00491 nM; Kd [3]: 0.0135 nM; Kd [4]: 0.0795 nM; Kd [5]: 0.00841 nM; Kd [6]: 0.0831 nM; Kd [7]: 0.431 nM
0.068	0.007	0.033	0.089	0.065	0.21	0.27	0.068	0.32	0.22	0.11	0.048	0.21	0.15	B1	
	0.134	0.36	0.033	0.071	0.059		0.069	0.074		0.05	0.047	0.043	0.063	B2	
1.6	0.09	0.43	0.021	0.043	0.049	0.02	0.037	0.02	0.017	0.007	0.033	0.037	0.03	B3	
0.64	0.047	0.034	0.2	0.22	0.157	0.32	0.145	0.3	0.29	0.23	0.16	0.155	0.23	Activin A (ligand) GLECDGKVNICCKKQFFVSFKDIGWNDWIIAPSGYHANYCEGECPSHIAGTSGSSLSFHSTVINHYRMRGHSPFANLKSCCVPTKLRPMSMLYYDDGQNIIKKDIQNMIVEECGCS	
